In patent publication US7446175 (dated 2008):

Experiments:
rhesus IL-1beta = biological target: T1, rhesus IL-1beta (rhesus monkey, UniProt P79182)
T1 chain: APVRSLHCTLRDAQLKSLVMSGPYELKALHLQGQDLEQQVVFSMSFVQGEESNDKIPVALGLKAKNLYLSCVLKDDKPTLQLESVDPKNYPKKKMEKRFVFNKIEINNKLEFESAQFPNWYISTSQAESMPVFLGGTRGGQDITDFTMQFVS

mouse IL-1beta = biological target: T2, mouse IL-1beta (mouse, UniProt P10749); assay: SPR, 8 nM
T2 chain: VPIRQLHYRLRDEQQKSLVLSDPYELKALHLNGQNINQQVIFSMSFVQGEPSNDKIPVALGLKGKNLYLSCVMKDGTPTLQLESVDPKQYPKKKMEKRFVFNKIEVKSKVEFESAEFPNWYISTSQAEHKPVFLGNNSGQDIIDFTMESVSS

rabbit IL-1beta = biological target: T3, rabbit IL-1beta (rabbit, UniProt P14628); assay: SPR, 8 nM
T3 chain: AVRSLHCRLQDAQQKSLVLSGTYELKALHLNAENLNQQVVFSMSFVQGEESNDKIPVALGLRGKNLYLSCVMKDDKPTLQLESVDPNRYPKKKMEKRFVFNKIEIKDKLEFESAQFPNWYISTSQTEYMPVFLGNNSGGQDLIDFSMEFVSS

rat IL-1beta = biological target: T4, rat IL-1beta (rat, UniProt Q63264); assay: SPR, 8 nM
T4 chain: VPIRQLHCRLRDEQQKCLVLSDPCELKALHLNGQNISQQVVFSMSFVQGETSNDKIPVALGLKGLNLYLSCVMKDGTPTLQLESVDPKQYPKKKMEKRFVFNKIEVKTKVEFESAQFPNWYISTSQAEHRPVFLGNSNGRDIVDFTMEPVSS

human IL-1Ra = human IL-1Ra (human, UniProt P18510); assay: SPR, 8 nM

Measured: binding result

B1: ACZ885 (antibody, V domains shown)
VH: QVQLVESGGGVVQPGRSLRLSCAASGFTFSVYGMNWVRQAPGKGLEWVAIIWYDGDNQYYADSVKGRFTISRDNSKNTLYLQMNGLRAEDTAVYYCARDLRTGPFDYWGQGTLVTVSS
VL: EIVLTQSPDFQSVTPKEKVTITCRASQSIGSSLHWYQQKPDQSPKLLIKYASQSFSGVPSRFSGSGSGTDFTLTINSLEAEDAAAYYCHQSSSLPFTFGPGTKVDIK
no binding: rhesus IL-1beta | mouse IL-1beta | rabbit IL-1beta | rat IL-1beta | human IL-1Ra
